For assay [1], the target named is T1, human ST2L on HEK-BLUE IL-33/IL-1beta cells (human, UniProt Q01638 19-556).
T1 sequence: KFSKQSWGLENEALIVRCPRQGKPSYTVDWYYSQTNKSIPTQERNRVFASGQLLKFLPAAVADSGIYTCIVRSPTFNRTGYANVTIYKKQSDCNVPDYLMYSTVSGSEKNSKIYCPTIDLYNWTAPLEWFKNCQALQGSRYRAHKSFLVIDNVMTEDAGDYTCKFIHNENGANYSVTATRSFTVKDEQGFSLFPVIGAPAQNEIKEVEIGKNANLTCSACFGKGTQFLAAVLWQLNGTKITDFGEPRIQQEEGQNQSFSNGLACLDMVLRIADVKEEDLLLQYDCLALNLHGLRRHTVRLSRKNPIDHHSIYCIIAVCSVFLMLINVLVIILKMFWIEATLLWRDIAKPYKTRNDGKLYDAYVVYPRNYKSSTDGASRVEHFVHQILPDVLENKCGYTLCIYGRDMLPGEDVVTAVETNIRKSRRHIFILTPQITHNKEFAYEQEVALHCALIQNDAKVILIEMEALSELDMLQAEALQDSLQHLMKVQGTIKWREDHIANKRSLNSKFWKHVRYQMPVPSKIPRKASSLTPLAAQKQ
The assay is described as follows: cell-based or functional assay.

The target in assay [2] is T2, cynomolgus monkey N-terminal 6-His-tagged and C-terminal Avi-tagged IL-33 (S112-T270) (cynomolgus monkey).
T2 chain: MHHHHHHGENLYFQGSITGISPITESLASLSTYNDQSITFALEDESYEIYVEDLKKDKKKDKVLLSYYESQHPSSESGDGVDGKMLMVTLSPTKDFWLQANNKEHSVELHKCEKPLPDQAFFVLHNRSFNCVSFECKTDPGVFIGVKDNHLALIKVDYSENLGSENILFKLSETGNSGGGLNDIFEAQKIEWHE
The assay is described as follows: cell-based or functional assay.

Assay [3] concerns the target T3, cyno IL-33 N-His (cynomolgus monkey).
T3 chain: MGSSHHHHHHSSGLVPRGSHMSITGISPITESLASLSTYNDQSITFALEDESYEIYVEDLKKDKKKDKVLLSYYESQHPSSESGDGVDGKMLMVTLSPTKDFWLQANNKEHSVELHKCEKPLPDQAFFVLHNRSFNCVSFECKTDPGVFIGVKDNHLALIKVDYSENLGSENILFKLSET
The experiment in a line: SPR Biacore T200, 25 C. In a few lines:
(§1)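 Antibodies captured via anti-Fc on CM5 chip; IL-33 injected at 3.7–100 nM (three-fold series), 4 min association, 10 min dissociation, 30 μl/min, ADA pH 7.4 buffer with 0.15 M NaCl, EDTA, Tween-20, at 25 °C or 37 °C. KD = koff/kon from 1:1 Langmuir fit; t1/2 = ln(2)/(60*koff).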
(In general: SPR reads the build-up and loss of mass on a sensor chip optically.)

For another assay, the target named is T4, biotinylated cyno IL-33 (cynomolgus monkey, UniProt A0A2K5W3I1 112-269, biotin-labeled with EZ-LINK NHS-PEG4-Biotin).
T4 construct: also called biotin-cyIL-33
T4 sequence: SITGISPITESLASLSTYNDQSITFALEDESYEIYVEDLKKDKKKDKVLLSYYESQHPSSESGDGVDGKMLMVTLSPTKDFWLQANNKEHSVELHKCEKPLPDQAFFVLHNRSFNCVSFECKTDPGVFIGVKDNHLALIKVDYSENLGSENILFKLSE
The assay is described as follows: competitive ELISA, biotin-cyIL-33 to coated hST2-Fc. As to the method:
(§2) The ability of the anti-IL-33 antibody 10C12.38.H6.87Y.58I IgG4 and each anti-IL-33 antibody listed in Table 5 (RG1-RG20) to block either human IL-33 or cyno IL-33 binding to human ST2 receptor was tested in a competitive binding ELISA. Briefly, 1 μg/ml of recombinant human ST2-Fc chimera protein prepared in coating buffer (50 mM sodium carbonate, pH 9.6) was coated on a 384-well MAXISORP® plate (Nalgene Nunc International; Rochester, N.Y.) and incubated overnight at 4° C. On the next day, non-specific binding was blocked with PBS containing 0.5% (w/v) solution of bovine serum albumin (BSA). Fixed concentrations of biotinylated human or cyno IL-33 prepared in assay buffer (25 mM PBS, pH 7.2, 0.1% BSA, 0.05% TWEEN®-20) were mixed with an equal volume of serially-diluted anti-IL-33 antibodies or assay buffer alone and incubated for 1 h at room temperature. The final assay concentrations of biotinylated human IL-33 or cyno IL-33 were 20 pM and 45 pM, respectively, and the final assay concentration of each antibody ranged from 0-300 nM. The pre-mixed solutions were added to the ST2-Fc coated plate and incubated for 1 h at room temperature. The binding of biotinylated IL-33 to coated ST2-Fc was detected by the sequential addition of Streptavidin Poly-HRP80 (Fitzgerald; Buckinghamshire, UK) and 3,3′,5,5′-tetramethyl benzidine (TMB) Microwell Peroxidase Substrate System (KPL; Gaithersburg, Md.). The absorbance (450 nm) was recorded using a […] ASCENT® plate reader (Thermo Scientific; Rockford, Ill.). The binding activity (%) of biotin-IL-33 to ST2 in the presence of anti-IL-33 was plotted as a function of antibody concentration. The data generated were fitted to a four-parameter equation to determine IC₅₀ values for each antibody (FIGS. 25A and 25B) using Prism software (Graphpad Software; La Jolla, Calif.). The maximum blocking (%) of each antibody was calculated as the ratio of the reduction in signal measured in the presence of antibody relative to the difference between the signal with IL-33 alone and background measurements.
On the technique in general: In an ELISA, binding on a coated surface is turned into a signal by an enzyme label.

The target in assay [4] is T3, cyno IL-33 N-His. The experiment in a line: SPR Biacore T200, 37 C. In a few lines: as §1
For assay [5], the target named is T2, cynomolgus monkey N-terminal …. The assay is described as follows: cell-based or functional assay.
Assay [6] concerns the target T5, human IL-33 (R&D Systems, #3625-IL-010/CF) (human, UniProt O95760 112-270).
T5 construct: also called hIL-33; huIL-33
T5 sequence (looked up): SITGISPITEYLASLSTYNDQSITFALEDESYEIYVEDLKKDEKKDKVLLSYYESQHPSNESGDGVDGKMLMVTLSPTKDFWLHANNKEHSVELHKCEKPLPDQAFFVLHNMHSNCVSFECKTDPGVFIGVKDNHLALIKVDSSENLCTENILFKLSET
The assay is described as follows: SPR Biacore T200, 25 C. A digest of the protocol: as §1

In assay [7] the target is T5, human IL-33 (R&D Systems, …). The assay is described as follows: SPR Biacore T200, 37 C. In a few lines: as §1
The target is the same in assay [8]. The assay is described as follows: cell-based or functional assay.
Assay [9] has the same target. The experiment in a line: cell-based or functional assay. This is another data set of the same source.
Assay [10] shares this target. The experiment in a line: cell-based or functional assay. This is another data set of the same source.
For assay [11] the target is unchanged. The assay is described as follows: cell-based or functional assay. The source holds these as a separate data set.
Assay [12] shares this target. The experiment in a line: cell-based or functional assay. This is another data set of the same source.
For assay [13] the target is unchanged. The experiment in a line: cell-based or functional assay. This is another data set of the same source.
A further assay concerns the target T6, biotinylated human IL-33 (human, UniProt O95760 112-270, biotin-labeled with EZ-LINK NHS-PEG4-Biotin).
T6 construct: also called biotin-huIL-33
T6 sequence (looked up): T5 sequence (looked up)
The experiment in a line: competitive ELISA, biotin-huIL-33 to coated hST2-Fc. The protocol: as §2

The results in this text go back to US20190092852A1 (Genentech, published 2019).

Positions count from the first letter of the chain named. Where two headings read alike, the source gives them in different places.

B1: Human IL-33 N-His C-Avi (ligand)
ligand: T2 chain with S26Y, K58E, S75N, Q99H, R127M, S128H, F129S, Y158S, G163C, S164T
B1: the “EC50 (SEAP reporter OD 620, HEK-BLUE IL-33/IL-1beta cells)” value in assay [1] amounted to 0.0098 nM.

B2: H1M9565N (antibody, V domains shown)
VH: QVTLKESGPVLVKPTESLTLTCSVSGFSLSNVRMGVSWIRQSPGKALEWLAHIFSNDEKSYTTSLKTRLTISKDTSRSQVVLTMTDMDPGDTATYYCARIRNLAFNYWGQGTLVTVSS
VL: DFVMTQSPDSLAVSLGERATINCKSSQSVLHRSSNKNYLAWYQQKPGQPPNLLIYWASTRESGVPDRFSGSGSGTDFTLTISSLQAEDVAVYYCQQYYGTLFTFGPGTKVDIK
For orientation: Kd means the constant that tells how readily two partners part at equilibrium. Broadly, the koff is the first-order rate constant of dissociation. Broadly, the kon is the rate constant with which the complex forms. The IC50 is the concentration needed to halve the response being measured. Turning to B2, in assay [2], the “HEK-BLUE SEAP reporter IC50” value stood at 6.1 nM. In the assay with cyno IL-33 N-His [3], this molecule had a dissociation constant (Kd) of 2.98 nM, a koff of 0.000606 s⁻¹, a kon of 203000 M⁻¹ s⁻¹ and a t1/2 of 19 min. For the same molecule, in the assay with biotinylated cyno IL-33, the IC50 was 19 nM and the “Maximum Blocking” value turned out to be 85%.

B3: Human IL-33 N-His Biotinylated (ligand)
ligand: T3 chain with S32Y, K64E, S81N, Q105H, R133M, S134H, F135S, Y164S, G169C, S170T
modifications: biotinylated, sites not given
B3: the “EC50 (SEAP reporter OD 620, HEK-BLUE IL-33/IL-1beta cells)” value in [1] turned out to be 0.004 nM.

B4: H4H9675P (antibody, V domains shown)
VH: EVQLVESGGNLEQPGGSLRLSCTASGFTFSRSAMNWVRRAPGKGLEWVSGISGSGGRTYYADSVKGRFTISRDNSKNTLYLQMNSLSAEDTAAYYCAKDSYTTSWYGGMDVWGHGTTVTVSS
VL: DIQMTQSPSSVSASVGDRVTITCRASQGIFSWLAWYQQKPGKAPKLLIYAASSLQSGVPSRFSGSGSGTDFTLTISSLQPEDFAIYYCQQANSVPITFGQGTRLEIK
For B4, the “HEK-BLUE SEAP reporter, fold weaker than 10C12.38.H6.87Y.58I IgG4” value in assay [2] is 14 fold. In addition, in the assay with cyno IL-33 N-His [3], binding was put at a Kd of 2.73 nM, the koff stood at 0.000988 s⁻¹, the on-rate constant (kon) came to 362000 M⁻¹ s⁻¹ and the t1/2 came to 12 min. In addition, in the assay with cyno IL-33 N-His [4], the Kd amounted to 6.72 nM, the dissociation rate constant (koff) came out at 0.00505 s⁻¹, the kon was 751000 M⁻¹ s⁻¹ and the t1/2 amounted to 2 min. The “IC50; SEAP reporter (OD 620), HEK-BLUE IL-33/IL-1beta cells, 5 pM cyno IL-33 (5pM cIL-33-Nhis)” value in assay [5] is 5.7e-08 M.

B5: H4H9629P (antibody, IgG4, V domains shown)
VH: EVQLVESGGGLVQPGGSLRLSCAASGFTFRSFAMSWVRQAPGKGLELVSDLRTSGGSTYYADSVKGRLTISRDNSKNTLYLQMNSLRAEDTAVYYCAKSHYSTSWFGGFDYWGQGTLVTVSS
VL: B4 VL with I29F, F30S, S76T, S77N, I85T, V94F, I96L, Q100G, R103K, L104V
notes: also called RG4
Turning to B5, in [6], the affinity, expressed as Kd, was 0.559 nM; the koff is 0.000632 s⁻¹; the kon is 1.13e+06 M⁻¹ s⁻¹; the t1/2 was 18 min. In the assay with cyno IL-33 N-His [3], this molecule showed a Kd of 54 nM, a koff of 0.0204 s⁻¹, an on-rate constant (kon) of 379000 M⁻¹ s⁻¹ and a t1/2 of 1 min. In [7], this molecule displayed a Kd of 0.261 nM, a koff of 0.000738 s⁻¹, a kon of 2.82e+06 M⁻¹ s⁻¹ and a t1/2 of 16 min. In the assay with cyno IL-33 N-His [4], this molecule displayed a Kd of 547 nM, a koff of 0.000502 s⁻¹, a kon of 916 M⁻¹ s⁻¹ and a t1/2 of 23 min. For the same molecule, in assay [8], the “IC50; SEAP reporter (OD 620), HEK-BLUE IL-33/IL-1beta cells, 10 pM hIL-33” value turned out to be 3.3e-11 M. Moreover, the “IC50, IL-33-induced phospho-p38 in primary human basophils, 500 pM hIL-33” value in assay [9] is 3.6e-13 M. Further, the “IC50 (read off the curve)” value in assay [10] was 0.0003 to 0.0004 nM. For the same molecule, the “IC50 (read off the curve)” value in assay [11] fell in the range of 0.0003 to 0.0004 nM. In assay [12], the “Ph-p38 MFI at 0.4 nM Ab (500 pM human IL-33, primary basophils)” value is 67 MFI. For the same molecule, in [13], the “Ph-p38 MFI at 2 nM Ab (500 pM human IL-33, primary basophils)” value was 38 MFI. Also, in the assay with biotinylated human IL-33, the IC50 came to 0.092 nM and the “Maximum Blocking” value worked out at 82%.
